Data: the nanobody polyreactivity screen of Harvey et al. (2022)

Assay: yeast display, Sf9 membrane polyspecificity reagent, FACS + sequencing; frameworks hold sequencing errors
How it was run: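 Sorting gates, low and high (top ~1%), were placed on anti-HA fluorescence to track expression and on streptavidin fluorescence to track reagent binding. A clone's polyreactivity label is taken from the gate it came out of. The reagent was 10% biotinylated, detergent-solubilized Sf9 membrane, applied for 1 hour at 4 °C to galactose-induced yeast display cells.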

Row | Sequence | polyreactivity (PSR sort gate)
1 | QVQLVESGGGLVQAGGSLRLSCAASGSIFRGYTMGWYIQAPGKERELVAAISTRGGSTYYADSVKGRFTISRDNSKNTVYLQMNSLKPEDTAVYYCNARSRGRASGYDYWGQGTQVTVSS | high polyreactivity
2 | QVQLVESGGGLVQAGGSLRLSCAASGSIFRGYTMGWYRQAPGKERELVAAISWSGGSTYYADSVKGRFTISRDNAKNTVYLQMNSLKPEDTAVYYCAAGDYYHRIFLWYDYWGQGTQVTVSS | low polyreactivity
3 | QVQLVESGGGLVQAGGSLRLSCAASGSIFRHNAMGWYRQAPGKERELVAAITSRGGSTYYADSVKGRFTISRDNAKNTVYLQMNSLKPEDTAVYYCAAGGHYYSSPGYNYWGQGTQVTVSS | high polyreactivity
4 | QVQLVESGGGLVQAGGSLRLSCAASGSIFRHNVMGWYRQAPGKERELVAAISGGGGRTYYADSVKGRFTISRDNAKNTVYLQMNSLKPEDTAVYYCNAYVGLSEGDYWGQGTQVTVSS | high polyreactivity
5 | QVQLVESGGGLVQAGGSLRLSCAASGSIFRINAMGWYRQAPGKEREFVAAISSRGGSTYYADSVKGRFTISRDNAKNTVYLQMKSLKPEDTAVYYCAKYASVGYGRYPYDYWGQGTQVTVSS | high polyreactivity
6 | QVQLVESGGGLVQAGGSLRLSCAASGSIFRINDMGWSRQAPGKERELVAAITFSGGSTYADSVKGRFTISRDNAKNTVYLQMNSLKPEDTAVYYCNADGAYWTDYYLYDYWGQGTQVTVSS | low polyreactivity
7 | QVQLVESGGGLVQAGGSLRLSCAASGSIFRIYAMGWYRQAPGIERELVAAINAGGGRTYYADSVKGRFTISRDNAKNTVYLLMNSLKPEDTAVYYCAARHTEYRQESLYYWGQGTQVTVSS | low polyreactivity
8 | QVQLVESGGGLVQAGGSLRLSCAASGSIFRIYAMGWYRQAPGKERELVAAIDSSGGSTYYADSVKGRFTISRDNAKNTVYFQMNSLKPEDTAVYYCNATFGYPFVDYDDYWGQGTQVTVSS | low polyreactivity
9 | QVQLVESGGGLVQAGGSLRLSCAASGSIFRIYAMGWYRQAPGKERELVAAIRNSGRTYYADSVKGRFTISRDNAKNTVYLQMNSLKPEDTAVYYCAAVGGRLRGDRGGYWGQGTQVTVSS | high polyreactivity
10 | QVQLVESGGGLVQAGGSLRLSCAASGSIFRIYAMGWYRQAPGKERELVAAISFSTGSRTYYADSVKGRFTISRDNAKNTVYLQMNSLKPEDTAVFYCNAESYYDYNYWGQGTQVTVSS | low polyreactivity
11 | QVQLVESGGGLVQAGGSLRLSCAASGSIFRKNAMGWYRQAPGKERELVAAITGTGRTTYADSVKGRFTISRDNAKNTVYLQMNSLKPEDTAVYYCAAEYYYRYSYTNEGDYWGQGTQVTVSS | low polyreactivity
12 | QVQLVESGGGLVQAGGSLRLSCAASGSIFRKNAMGWYRQAPGKERELVATISGGGSTTYADSVKGRFTISRDNAKNTVYLQMNSLKPEDTADYYCAARSTWFQIRYGYWGQGTQVTVSS | high polyreactivity
13 | QVQLVESGGGLVQAGGSLRLSCAASGSIFRKNAMGWYRQAPGKETELVAAITGSGRTTYADSVKGRFTISRDNAKNTVYLQMNSLKPEDTAVYYCAADVNYYQHRLYYWGQGTQVTVSS | low polyreactivity
14 | QVQLVESGGGLVQAGGSLRLSCAASGSIFRKYAMGWYRQATGKERELVAAIRSSGGSTYYADSVKGRFTISRDNAKNTVYLQMNSLKPEDTSVYYWAATTGEHEDFRGQGTQVTVSS | high polyreactivity
15 | QVQLVESGGGLVQAGGSLRLSCAASGSIFRKYVMGWYRQAPGKERELVAAISGSGGRTYYADSVKGRFTISRDNAKNTVYLQMNSLKPEDTAVSYSNAYPHAYTGSTREGDYWGQGTQVTVSS | high polyreactivity
16 | QVQLVESGGGLVQAGGSLRLSCAASGSIFRLYGKGLYRQAPGKEREFGASITYRGGNTYYADSVKGRFTISRDNAKNTVYLQMNSLKPEDTAVYYCARSGYQKVGGFRYDYWGQGTQVTVSS | low polyreactivity
17 | QVQLVESGGGLVQAGGSLRLSCAASGSIFRNYAMGWYRQAPGKERELVARISYSGGRTHYADSVKGRFTISRDNAKNTVYLQMNSLKPEDTAVYYCAAPFHFTHFQGNYYWGQGTQVTVSS | low polyreactivity
18 | QVQLVESGGGLVQAGGSLRLSCAASGSIFRNYAMGWYRQAPGKERELVAVITQRGGRTYYADSVKGRFTISRDNAKNTVYLQMNSLKPEDTAVYYCAASYRGVPEYDSWGQGTQVTVSS | low polyreactivity
19 | QVQLVESGGGLVQAGGSLRLSCAASGSIFRPNVMGWYRQEPGKERELVATISWSGGSTYYADSVKGRFTISRDNASNTVYLQMNSLKPEDTAVYYCAALWPYGYWGQGTEVTVSS | low polyreactivity
20 | QVQLVESGGGLVQAGGSLRLSCAASGSIFRPYAMGWYRPAPGQDRELVAAISSSGGGTYYADSVKGRFTISRDNAKKTVYLQMNSLKPEDTAVYLYGSWGQGTQVTVSS | low polyreactivity
21 | QVQLVESGGGLVQAGGSLRLSCAASGSIFRPYAMGWYRQAPGKERELVAAISWRSGRTYYADSVKGRFTISRDNAKNTVYLQMNSLKPEDTAVYYCAADLASYAYRYDYWGQGTQVTVSS | high polyreactivity
22 | QVQLVESGGGLVQAGGSLRLSCAASGSIFRQYAMGLSRQAPGKERELVAAITYSGGNTYYADSVKGRFTISRDNAKNPVYLQLNSLKPEDTAVYYCAADYGSRSWEYTYWGQGTQVTVSS | low polyreactivity

Row | Sequence | polyreactivity (PSR sort gate)
23 | QVQLVESGGGLVQAGGSLRLSCAASGSIFRQYAMGWYRQAPPKDRELVAAISSVGRTYYADSVKGRFTISRDNAKNTVYLQMNSLKPEDTAVYYCAARPYKFARYDYWGQGTQVTVSS | high polyreactivity
24 | QVQLVESGGGLVQAGGSLRLSCAASGSIFRRNSMGWYRPAPGKERELVAAISSIGSSTYYADSVKGRFTISRDNAKNTVYLQMNSLKPEDTAVYYCAALYVQGSHTYGYWGQGTQVTVSS | high polyreactivity
25 | QVQLVESGGGLVQAGGSLRLSCAASGSIFRRYALGWYRQAPGKERELVAAISYSGGSTYYADSVKGRFTISRDNAKNTVYLQMNSLKPEDTAVYYCAVVTRKGLYDYWGQGTQVTGSS | high polyreactivity
26 | QVQLVESGGGLVQAGGSLRLSCAASGSIFRRYAMGWYRPAPGKERELVAAITNRGGTTYYADSVKGRFTISRDNAKNTVYLQMNSLNPEDTAVYYCATALWVRYYGQGGYIRRYDYWGQGTQVTVSS | high polyreactivity
27 | QVQLVESGGGLVQAGGSLRLSCAASGSIFRRYAMGWYRPAPGTERELVAAISYSGGSTYYADSVKGRFTISRDNAKNTVYLQMNSLKPEDTAVYYCAADESRYDYWGQGTQVTVSS | high polyreactivity
28 | QVQLVESGGGLVQAGGSLRLSCAASGSIFRRYAMGWYRQAPGKERELVAAISSNGGSTYYADSVKGRFTISRDNAKNTVYLQMNSLKPEDTAVYYCNAPPLYRDEYWGQGTQVTVSS | high polyreactivity
29 | QVQLVESGGGLVQAGGSLRLSCAASGSIFRSNAMGWYRQAAGKERELVAAIDYSGTSTTYADSVKGRFTISRDNAKNTVYLQMNSLKPEDTAVYYCNADGYYRGYWSGYEYWGQGTQVTVSS | low polyreactivity
30 | QVQLVESGGGLVQAGGSLRLSCAASGSIFRSNAMGWYRQAPGKEREFVAAITSRSSSTYYADSVKGRFTISRDNAKNTVYLQMNSLKPEDTAVYYCAARYQHYFTGGDYWGQGTQVTVSS | low polyreactivity
31 | QVQLVESGGGLVQAGGSLRLSCAASGSIFRSNAMGWYRQAPGKERELVAAITQSGDTTNYADSVKGRFTISRDNAKNTVYLQMNSLKPEDTAVYYCNADTDRYWPYEYDYWGQGTQVTVSS | low polyreactivity
32 | QVQLVESGGGLVQAGGSLRLSCAASGSIFRSNDMGWYRQAPGKERELVARITSSVGSTYYADSVKGRFTISRDNAKNTVYLQMNSLKAEDTAVYYGAKRYYHYPYGYRDYDYWGQGTQVTVSS | low polyreactivity
33 | QVQLVESGGGLVQAGGSLRLSCAASGSIFRSNTMGWYRQAPGKERELVAGISYSGGSTYADSVKGRFTISRDNAKNTVYLQMNSLKTEDTAVYYCARRVYSYVVLYFSYYYWGQGTQVTVSS | low polyreactivity
34 | QVQLVESGGGLVQAGGSLRLSCAASGSIFRSYAKGWYRQAPGKERELVAAISSSGGRKYYADSVKGRFTISRDNAKNTVYLQMNSLKPEDTAVYYCAAYGAGGYKYDYWGQGTQVTVSS | low polyreactivity
35 | QVQLVESGGGLVQAGGSLRLSCAASGSIFRSYALGWYRQAPGKERELVAAITWSGGRTYYADSVKGRFTISRDNAKNTVYLQMNSLKPEDTAVYYCNADVWWDTWFLDGYDYWGQGTQVTVSS | high polyreactivity
36 | QVQLVESGGGLVQAGGSLRLSCAASGSIFRSYAMGWYRPAPGKERELVAAISSGGRTKYADSVKGRFTISRDNAKNTVYLQMNSLKPEDTAVYYCAARAYYARFLMGYWGQGTQVTVSS | high polyreactivity
37 | QVQLVESGGGLVQAGGSLRLSCAASGSIFRSYAMGWYRQAPGKERELVAAISGRGSNTYYADSVKGRFTISRDNAKNTVYLQMNSLKPEDTAVYYCATRQWVFSHGYWGQGTQVTVSS | high polyreactivity
38 | QVQLVESGGGLVQAGGSLRLSCAASGSIFRSYAMGWYRQAPGKERELVAAISRRGGSTYYADSVKGRFTISRDNAKNTVYLQMNSLKPADTAVYYCAADRTGPYDYWGQGTQVTVSS | high polyreactivity
39 | QVQLVESGGGLVQAGGSLRLSCAASGSIFRTNAMGWYREAPGKERELVAAITGRGGSTYYADSVKGRFTISRDYAKNTVYLQMNSLKPEDTAVYYCAAAYGTWKFLATTEDYWGQGTQVTVSS | high polyreactivity
40 | QVQLVESGGGLVQAGGSLRLSCAASGSIFRTNAMGWYRQAPGKERELVAAISRRGSNTYYADSVKGRFTISRDNAKNTVYLLMNSMKPEDTAVYYCAADVSGSKYDYWGQGTQVTVSS | high polyreactivity
41 | QVQLVESGGGLVQAGGSLRLSCAASGSIFRTYTMGWYRQAPGKERELVAAITRSGGRTFYADSVKGRFTISRDTAKNTVYLQMHSLKPEDTAVYYCAAKRTGDYDWGQGTQVTVSS | high polyreactivity
42 | QVQLVESGGGLVQAGGSLRLSCAASGSIFRVNTLGWYRQAPGKERELVATISSGARTNYADSVKGRFTISRDNAKNTVDLQLNSLKPEDTAVYYCAADRSWGYWGRSRYDYWGQGTQVTVSS | high polyreactivity
43 | QVQLVESGGGLVQAGGSLRLSCAASGSIFRVNTMGWYRQAPGKERELVAGITSRGGSTYYADSVKGRFTISRDNAKNTVYLQMNSLKPEDTAFYYCANRAYGTALYRGYGYWGQGTQVPVSS | low polyreactivity
